Source: US8597660B2, “Therapeutic approach to neurodegenerative disorders using a TFP5-peptide” (The United States of America, as represented by the …, priority 2010, dated 2013)
Entries after “also recorded” stand apart in the source; their conditions may differ.

What was measured:
Cdk5/P25 [1] = molecular target: T1, Cdk5/P25 (Rattus norvegicus, UniProt Q03114); experiment: In vitro kinase assay on Cdk5 immunoprecipitates of Aβ1-42-treated cortical neurons with added P5 peptide; assay type: biochemical; details: P5 0.45 μM or above
T1 construct: endogenous in cells; host or cells: E-18 rat cortical neurons treated with 10 uM Abeta1-42
Procedure: Kinase assays were performed as previously described (Veeranna, et al., J Neurosci 18(11), 4008-4021, 1998). Briefly, 7 days in culture (7 DIC) primary rat cortical neurons were infected with P25, P35, Cdk5 wild-type, dominant negative-Cdk5 and P5 using the lentiviral gene delivery as described earlier. Cdk5 was immunoprecipitated using the polyclonal C8 antibody overnight at 4° C. and immunoglobulin isolated using Protein A sepharose beads for 2 hours at 4° C. Immunoprecipitates were washed three times with lysis buffer and then once with 1× kinase buffer containing 20 mM Tris-Cl pH 7.4, 1 mM EDTA, 1 mM EGTA, 10 mM MgCl2, 10 mM sodium fluoride and 1 mM sodium orthovanadate. Endogenous Cdks were immunoprecipitated from HEK 293 cells using their respective antibodies and treated as above. Kinase assays were performed in the same buffer containing 1 mM DTT, 0.1 mM ATP and 0.185 MBq [γ-32P] ATP with 20 μg of histone H1 as the substrate. […]
To determine the minimum dose at which the P5 peptide is an efficient inhibitor of Cdk5/P25 hyperactivity under physiological conditions, cortical neurons were treated with Aβ1-42 to induce the expression of P25 and Cdk5 hyperactivation, Cdk5 immunoprecipitates were prepared and the effect of different concentrations of P5 was evaluated (FIG. 6).

[2] = system: Cdc2, Cdk2, Cdk4, and Cdk6; experiment: Kinase pad assay on Cdk immunoprecipitates of untreated HEK293 lysates with added P5 peptide; assay type: biochemical, human; details: P5 peptide up to 1.8 μM; roscovitine 20 μM
Procedure: Briefly, 7 days in culture (7 DIC) primary rat cortical neurons were infected with P25, P35, Cdk5 wild-type, dominant negative-Cdk5 and P5 using the lentiviral gene delivery as described earlier. Cdk5 was immunoprecipitated using the polyclonal C8 antibody overnight at 4° C. and immunoglobulin isolated using Protein A sepharose beads for 2 hours at 4° C. Immunoprecipitates were washed three times with lysis buffer and then once with 1× kinase buffer containing 20 mM Tris-Cl pH 7.4, 1 mM EDTA, 1 mM EGTA, 10 mM MgCl2, 10 mM sodium fluoride and 1 mM sodium orthovanadate. Endogenous Cdks were immunoprecipitated from HEK 293 cells using their respective antibodies and treated as above. […] ATP with 20 μg of histone H1 as the substrate. Phosphorylation was performed in a final volume of […] incubated at 30° C. for 60 minutes, stopped by the addition of 10% SDS sample buffer and heating at 95° C. for 5 minutes. Samples were separated by SDS-PAGE, gels were stained with Coomassie, destained, dried and exposed to autoradiography. In pad assays, 25 μl aliquots of the incubation mixture were placed on a Whatman p80 paper square, washed and dried and placed in a scintillation vial for counting.

Cdk5/P25 [3] = molecular target: Cdk5/P25 (Homo sapiens, UniProt Q00535); experiment: Kinase assay of Cdk5 immunoprecipitates from cortical neurons infected with Cdk5/P25 with or without P5; assay type: cell-based; design: expressed in transfected cells; host or cells: E-18 rat cortical neurons, adenoviral infection (pAdTrack-CMV / AdEasy); details: E-18 rat cortical neurons co-infected with P5
Procedure: Primary cultures of rat cortical neurons were prepared from E-18 rat fetuses as described previously (Zheng et al., J Biol Chem 278(26), 24026-24032, 2003). After 7 days, cells were infected independently or co-infected with empty vector (EV), the constructs of P5, P25, P35, wild-type Cdk5 and dominant negative Cdk5 (changing Lys33 to Thr33) using the Adenoviral vector (pAdTrack-CMV) packaging system as described above. […] The cells were fixed for immunocytochemistry analyses (ICC) or lysed with lysis buffer for immunoprecipitation and Western blot analyses. Cortical neuron cultures were prepared and plated on the cover slips as described. Human embryo kidney cells (HEK293) were grown as described previously (Zheng et al., Eur J Biochem 269(18), 4427-4434, 2002). In these studies HEK293 cells on day 1, or neurons on day 5, were transfected with or without Myc-P5-GFP using Lipofectamine 2000 following the manufacturer's instructions.
Kinase assays were performed as previously described (Veeranna, et al., J Neurosci 18(11), 4008-4021, 1998). Briefly, 7 days in culture (7 DIC) primary rat cortical neurons were infected with P25, P35, Cdk5 wild-type, dominant negative-Cdk5 and P5 using the lentiviral gene delivery as described earlier. […]

Cdk5/P25 (Homo sapiens, UniProt Q00535), sequence (Q00535 whole entry, species assumed): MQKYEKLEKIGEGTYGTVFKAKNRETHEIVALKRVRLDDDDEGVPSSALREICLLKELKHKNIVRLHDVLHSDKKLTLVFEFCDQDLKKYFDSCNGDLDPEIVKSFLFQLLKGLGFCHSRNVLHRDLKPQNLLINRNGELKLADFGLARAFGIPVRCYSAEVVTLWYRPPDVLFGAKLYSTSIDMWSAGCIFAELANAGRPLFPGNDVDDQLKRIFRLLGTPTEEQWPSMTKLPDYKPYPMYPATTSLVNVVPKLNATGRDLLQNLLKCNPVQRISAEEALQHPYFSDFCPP
T1 sequence (Q03114 whole entry): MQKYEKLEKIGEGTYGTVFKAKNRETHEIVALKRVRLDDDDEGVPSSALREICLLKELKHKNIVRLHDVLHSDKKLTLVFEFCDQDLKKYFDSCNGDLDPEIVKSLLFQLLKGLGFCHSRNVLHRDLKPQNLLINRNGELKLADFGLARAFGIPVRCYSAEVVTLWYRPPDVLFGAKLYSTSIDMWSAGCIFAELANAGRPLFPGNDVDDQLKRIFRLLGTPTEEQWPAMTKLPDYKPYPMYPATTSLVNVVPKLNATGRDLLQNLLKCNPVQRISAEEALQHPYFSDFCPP

Substance: P5: 24 residue peptide derived from Cdk5 activator P35 (K254-A277 of SEQ ID NO: 16); Cdk5 inhibitory peptide (KEAFWDRCLSVINLMSSKMLQINA; listed as Homo sapiens)
- Aβ1-42-induced Cdk5 hyperactivity (Cdk5/P25 [1]): totally eliminated
- Inhibition of cell cycle Cdk activities in vitro [2]: virtually no inhibition; also recorded: minimal inhibition of Cdc2 and Cdk4 activities
- Decrease of Cdk5 activity in neurons infected with Cdk5/P25 (Cdk5/P25 [3]): more than 90%
